Measurements from article PMC7072344, “Structure–Activity Relationship of HER2 Receptor Targeting Peptide and Its Derivatives in Targeted Tumor Therapy” (Biomolecules, 2020).

Biological target: T1, human epidermal growth factor 2 (HER2) receptor (human (endogenous in MDA-MB-453, …, UniProt P04626 23-1255))
T1 construct: HER2 (ErbB2), 185 kDa transmembrane glycoprotein, endogenous on human breast cancer cell lines; No isolated HER2 was tested; also called ErbB2; source: endogenous, on MDA-MB-453 breast cancer cells (highest HER2 expression); also on MDA-MB-435 Br and MCF-7 cells (medium HER2 expression)
Test: flow cytometry on cells; MDA-MB-453 cells incubated with CF-labelled peptides, 12.5 µM, 3 h, 37 °C, 5 min trypsinization; read-out percentage of CF+ live cells and mean fluorescence intensity
Conditions: one partner purified

B1: CF-KAAYSLGYYNPT-NH2 (peptide)
peptide: {5(6)‑carboxyfluorescein}-KAAYSLGYYNPT-NH2
notes: combined peptide: KAAYSL followed by GYYNPT; also called cP(AA)_P(YY); cP(AA)_(YY); source: synthetic peptide (Fmoc/tBu solid phase, RP-HPLC purified)
  fold increase of mean fluorescence intensity over P(AA): ~10 fold
